Laboratory results published in US10889805B2, “Intestinal epithelioid cells” (National Institutes of Biomedical Innovation, Health and …, priority 2015, dated 2021).

Legend:
VILLIN = VILLIN expression by quantitative real-time RT-PCR in cells differentiating from human iPS cells to enterocyte-like cells; type: cell-based; conditions: compound added with BIO and DAPT, 5 days culture; versus control without the compounds; FIG. 3B
Experimental: (§1) The definitive endoderm cells generated from the human iPS cell line (Tic) by the method described in Example 1 above were further cultured for 15 days using the medium 3. During a period from day 4 to day 19 after the initiation of differentiation induction, BIO (5 μM) and DAPT (10 μM) were added to the culture system. Simultaneously with the addition of the BIO and the DAPT, the cells were further cultured for 5 days using the medium 3 supplemented with any one of phorbol-myristate-acetate (PMA), transforming growth factor β1 (TGEβ1), Wortmannin, Noggin, SB431542, Follistatin, EGF, R-spondin1, Pentagastrin, or Wnt3a (FIG. 2A and FIG. 3A).
(§2) With regard to the measurement of the enterocyte markers ANPEP and VILLIN, each of the enterocyte markers was measured by a quantitative real-time RT-PCR method using SYBR Green gene expression assays (APPLIED BIOSYSTEMS). […] Thus, high expressions of ANPEP and VILLIN were found when the cells were cultured in the system containing SB431542, EGF, or Wnt3a.
(§3) The quantitative real-time RT-PCR was performed by the following method. […] A quantitative real-time RT-PCR method using SYBR Green gene expression assays (APPLIED BIOSYSTEMS) was performed, and quantification was performed with STEPONEPLUS real-time PCR System (APPLIED BIOSYSTEMS).

ANPEP = ANPEP expression by quantitative real-time RT-PCR in cells differentiating from human iPS cells to enterocyte-like cells; type: cell-based; conditions: compound added with BIO and DAPT, 5 days culture; versus control without the compounds; FIG. 2B
Experimental: as §1, §2, §3

B1: Wnt3a (protein, UniProt P56704 19-352, looked up)
Protein Wnt-3a: SYPIWWSLAVGPQYSSLGSQPILCASIPGLVPKQLRFCRNYVEIMPSVAEGIKIGIQECQHQFRGRRWNCTTVHDSLAIFGPVLDKATRESAFVHAIASAGVAFAVTRSCAEGTAAICGCSSRHQGSPGKGWKWGGCSEDIEFGGMVSREFADARENRPDARSAMNRHNNEAGRQAIASHMHLKCKCHGLSGSCEVKTCWWSQPDFRAIGDFLKDKYDSASEMVVEKHRESRGWVETLRPRYTYFKVPTERDLVYYEASPNFCEPNPETGSFGTRDRTCNVSSHGIDGCDLLCCGRGHNARAERRREKCRCVFHWCCYVSCQECTRVYDVHTCK
notes: humoral factor added to the culture system
expression of VILLIN (VILLIN): high value
expression of ANPEP (ANPEP): high value
